Experiment [1] addresses human PVRIG (AcroBiosystems, Cat NO. PVG-H52H4) (human) (UniProt Q6DKI7). The experiment can be described thus: ELISA, coated human PVRIG; negative control. On the technique in general: An ELISA detects its analyte on a solid surface through an enzyme-linked reagent.
The target in experiment [2] is human PVRIG-mFc protein (Acro, PVG-H5253) (human) (UniProt Q6DKI7). Put plainly: HTRF competition, PVRIG-mFc with Bio-CD112-His as competitor; negative control. A general note: In TR-FRET formats the signal depends on donor and acceptor labels being close together.
Sequence of human PVRIG-mFc protein (Acro, PVG-H5253) (human) (Q6DKI7 41-171 limits assumed, form in doubt): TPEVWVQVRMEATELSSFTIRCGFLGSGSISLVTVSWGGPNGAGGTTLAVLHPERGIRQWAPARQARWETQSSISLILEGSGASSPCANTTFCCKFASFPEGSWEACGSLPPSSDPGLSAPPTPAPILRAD
In experiment [3] the target is cynomolgus monkey TIGIT ECD-mFc (cynomolgus monkey). The experiment can be described thus: ELISA, cynomolgus TIGIT ECD-mFc captured by anti-mouse IgG; negative control.
Sequence of cynomolgus monkey TIGIT ECD-mFc (cynomolgus monkey) (chain, as listed by the source limits assumed): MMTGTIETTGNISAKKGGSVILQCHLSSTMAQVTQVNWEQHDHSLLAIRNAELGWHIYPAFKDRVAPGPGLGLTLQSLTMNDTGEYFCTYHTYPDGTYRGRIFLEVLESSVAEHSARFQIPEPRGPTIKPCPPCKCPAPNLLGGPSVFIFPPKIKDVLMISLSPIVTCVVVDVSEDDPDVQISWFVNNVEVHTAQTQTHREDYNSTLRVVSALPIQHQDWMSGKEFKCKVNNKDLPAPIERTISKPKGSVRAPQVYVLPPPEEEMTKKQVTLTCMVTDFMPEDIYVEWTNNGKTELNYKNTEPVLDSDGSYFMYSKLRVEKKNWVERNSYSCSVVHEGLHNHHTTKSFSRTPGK
Experiment [4] has as its target cynomolgus monkey PVRIG (Novoprotein, Cat NO. C09B) (cynomolgus monkey). Put plainly: ELISA, coated cynomolgus PVRIG; negative control.

Broadly, the EC50 is the midpoint of the concentration-response curve. What is called IC50 is the concentration at which inhibition is half-maximal.

Sequence of cynomolgus monkey PVRIG (Novoprotein, Cat NO. C09B) (cynomolgus monkey) (chain, as listed by the source): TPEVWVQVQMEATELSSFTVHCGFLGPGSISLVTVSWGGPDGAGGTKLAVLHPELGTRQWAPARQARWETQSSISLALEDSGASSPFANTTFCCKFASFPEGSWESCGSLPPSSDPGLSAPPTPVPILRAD
Sequence of human PVRIG (AcroBiosystems, Cat NO. PVG-H52H4) (human) (Q6DKI7 41-171 limits assumed, form in doubt): as the sequence (Q6DKI7 41-171 limits assumed, form in doubt) above

As to anti-Fluorescein-hIgG1 (antibody), the figures for the 50% effective concentration (EC50) in experiment [1], in experiment [3] and in experiment [4] were 40300 nM, 0.687 nM and 4 nM, respectively. The IC50 in experiment [2] is 0.0302 nM.

For the origin of these results see patent US20240343803A1.
